Reference: patent US20230272081A1 (AVACTA LIFE SCIENCES, published 2023)
Each block holds one binder with its values, some of them ahead of it.

Columns and labels:
[1] = molecular target: T1, human serum albumin (HSA) (human, UniProt P02768 25-609); assay: SPR (Biacore) kinetic analysis, pH 6.0 and pH 7.4 running buffer; the pH for each end is not stated; lower end of the range; pH 6.0 or pH 7.4 not told
T1 construct: mature; also called HuSA; HSA (Sigma)

[2] = molecular target: T2, mouse serum albumin (MSA) (mouse, UniProt P07724 25-608); assay: SPR (Biacore) kinetic analysis, MSA, pH 6.0; reference HSA-18 monomer
[3] = molecular target: PD-L1 (PD-1/PD-L1 blockade Bioassay, Promega) (UniProt Q9NZQ7 19-290, limits assumed); assay: cell-based or functional assay
Chain of PD-L1 (PD-1/PD-L1 blockade Bioassay, Promega) (Q9NZQ7 19-290 limits assumed): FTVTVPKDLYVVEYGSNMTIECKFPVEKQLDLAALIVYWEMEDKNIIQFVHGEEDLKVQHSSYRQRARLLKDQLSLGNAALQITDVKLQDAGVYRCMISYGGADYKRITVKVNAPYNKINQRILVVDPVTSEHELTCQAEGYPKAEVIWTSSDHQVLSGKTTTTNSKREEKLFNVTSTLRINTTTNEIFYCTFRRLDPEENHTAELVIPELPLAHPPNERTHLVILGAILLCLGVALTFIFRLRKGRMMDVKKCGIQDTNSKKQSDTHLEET

[4] = molecular target: T3, human PD-L1-Fc (R&D Systems) (human, UniProt Q9NZQ7 19-239); assay: SPR (Biacore T200), PD-L1-Fc amine-coupled to CM5 chip, AFFIMER as analyte, 1:1 Langmuir fit
T3 construct: Bought from R&D Systems; also called rhPD-L1-Fc; human PD-L1 Fc chimeric protein; not shown: the Fc part of the bought chimera is not described
T3 sequence (Q9NZQ7 19-239): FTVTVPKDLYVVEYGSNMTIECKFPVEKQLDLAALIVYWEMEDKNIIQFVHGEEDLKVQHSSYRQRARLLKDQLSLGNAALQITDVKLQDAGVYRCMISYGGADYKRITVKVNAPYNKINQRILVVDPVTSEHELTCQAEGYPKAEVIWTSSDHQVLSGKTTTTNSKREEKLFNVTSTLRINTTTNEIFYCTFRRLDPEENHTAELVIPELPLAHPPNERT
Protocol: To analyze PD-L1-Fc binding kinetics, a Biacore T200 kinetic analysis was performed using running buffer HBS-EP+ and series S sensor CM5 (GE Healthcare) chip Fc2 immobilized with PD-L1-Fc (R&D Systems) in 10 mM sodium acetate pH 4.0 using amine coupling reagents (GE Healthcare). The concentration titration of ILF AFFIMER® proteins was run as analyte at a flow rate of 30 μl/min. […] with 3 mM NaOH (GE healthcare) for 20 seconds at 20 μl/min flow rate. The Fc2-1 data blank was subtracted and fit to a 1:1 Langmuir binding model (Biacore evaluation software; GE) to calculate an apparent KD value.

[5] = molecular target: T2, mouse serum albumin (MSA); assay: binding ELISA on coated MSA, pH 7.4 by the legend (the panel's title prints pH 7)

T1 sequence (P02768 25-609): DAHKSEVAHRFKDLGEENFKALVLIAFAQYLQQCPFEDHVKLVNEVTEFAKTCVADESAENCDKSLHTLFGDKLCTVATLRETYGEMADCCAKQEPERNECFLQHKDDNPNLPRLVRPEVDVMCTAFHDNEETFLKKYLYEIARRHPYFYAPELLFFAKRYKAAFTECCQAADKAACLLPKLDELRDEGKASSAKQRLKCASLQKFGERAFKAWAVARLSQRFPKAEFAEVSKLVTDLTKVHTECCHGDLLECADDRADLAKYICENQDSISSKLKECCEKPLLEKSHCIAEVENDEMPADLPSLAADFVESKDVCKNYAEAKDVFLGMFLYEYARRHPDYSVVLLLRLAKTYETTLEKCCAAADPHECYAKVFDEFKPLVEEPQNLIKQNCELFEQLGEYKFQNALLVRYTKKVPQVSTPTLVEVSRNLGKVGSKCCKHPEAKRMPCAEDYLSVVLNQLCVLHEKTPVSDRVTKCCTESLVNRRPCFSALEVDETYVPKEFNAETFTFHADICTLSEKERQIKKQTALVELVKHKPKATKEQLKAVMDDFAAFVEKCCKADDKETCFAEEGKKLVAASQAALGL

B2: AVA04-251 XT60 (designed binder)
chain: MIPRGLSEAKPATPEIQEIVDKVKPQLEEKTNETYGKLEAVQYKTQVLAREGRQDWVLSTNYYIKVRAGDNKYMHLKVFNGPWVPFPHQQLADRVLTGYQVDKNKDDELTGFAEAAAKEAAAKEAAAKEAAAKEAAAKEAAAKMIPRGLSEAKPATPEIQEIVDKVKPQLEEKTNETYGKLEAVQYKTQVLAREGRQDWVLSTNYYIKVRAGDNKYMHLKVFNGPWVPFPHQQLADRVLTGYQVDKNKDDELTGFAEAAAKEAAAKEAAAKEAAAKEAAAKEAAAKMIPRGLSEAKPATPEIQEIVDKVKPQLEEKTNETYGKLEAVQYKTQVLADWWQAKWPHSTNYYIKVRAGDNKYMHLKVFNGPYKVHQSSGGADRVLTGYQVDKNKDDELTGFHHHHHH
notes: Made in E. coli and purified on NiNTA
fold of the monomer serum albumin binding AFFIMER affinity [2]: ≤ 2 fold

B3: AVA04-251 XT14 (designed binder)
chain: MIPRGLSEAKPATPEIQEIVDKVKPQLEEKTNETYGKLEAVQYKTQVLAREGRQDWVLSTNYYIKVRAGDNKYMHLKVFNGPWVPFPHQQLADRVLTGYQVDKNKDDELTGFAEAAAKEAAAKEAAAKEAAAKEAAAKEAAAKMIPRGLSEAKPATPEIQEIVDKVKPQLEEKTNETYGKLEAVQYKTQVLAREGRQDWVLSTNYYIKVRAGDNKYMHLKVFNGPWVPFPHQQLADRVLTGYQVDKNKDDELTGFAEAAAKEAAAKEAAAKEAAAKEAAAKEAAAKMIPRGLSEAKPATPEIQEIVDKVKPQLEEKTNETYGKLEAVQYKTQVLANFFQRRWPGSTNYYIKVRAGDNKYMHLKVFNGPWKFRNTDRGADRVLTGYQVDKNKDDELTGFHHHHHH
half-maximal concentration in the PD-1/PD-L1 blockade Bioassay (Promega), fold change relative to assay buffer; the table's head prints IC50 (nM), the text calls it EC50 [3]: 176 nM

B4: AVA04-251 XT61 (designed binder)
chain: MIPRGLSEAKPATPEIQEIVDKVKPQLEEKTNETYGKLEAVQYKTQVLAREGRQDWVLSTNYYIKVRAGDNKYMHLKVFNGPWVPFPHQQLADRVLTGYQVDKNKDDELTGFAEAAAKEAAAKEAAAKEAAAKEAAAKEAAAKMIPRGLSEAKPATPEIQEIVDKVKPQLEEKTNETYGKLEAVQYKTQVLADWWQAKWPHSTNYYIKVRAGDNKYMHLKVFNGPYKVHQSSGGADRVLTGYQVDKNKDDELTGFAEAAAKEAAAKEAAAKEAAAKEAAAKEAAAKMIPRGLSEAKPATPEIQEIVDKVKPQLEEKTNETYGKLEAVQYKTQVLAREGRQDWVLSTNYYIKVRAGDNKYMHLKVFNGPWVPFPHQQLADRVLTGYQVDKNKDDELTGFHHHHHH
notes: as for B2
fold of the monomer serum albumin binding AFFIMER affinity [2]: ≤ 2 fold

B5: AVA04-251 XT15 (designed binder)
chain: MIPRGLSEAKPATPEIQEIVDKVKPQLEEKTNETYGKLEAVQYKTQVLAREGRQDWVLSTNYYIKVRAGDNKYMHLKVFNGPWVPFPHQQLADRVLTGYQVDKNKDDELTGFAEAAAKEAAAKEAAAKEAAAKEAAAKEAAAKMIPRGLSEAKPATPEIQEIVDKVKPQLEEKTNETYGKLEAVQYKTQVLANFFQRRWPGSTNYYIKVRAGDNKYMHLKVFNGPWKFRNTDRGADRVLTGYQVDKNKDDELTGFAEAAAKEAAAKEAAAKEAAAKEAAAKEAAAKMIPRGLSEAKPATPEIQEIVDKVKPQLEEKTNETYGKLEAVQYKTQVLAREGRQDWVLSTNYYIKVRAGDNKYMHLKVFNGPWVPFPHQQLADRVLTGYQVDKNKDDELTGFHHHHHH
half-maximal concentration in the PD-1/PD-L1 blockade Bioassay (Promega), fold change relative to assay buffer; the table's head prints IC50 (nM), the text calls it EC50 [3]: 434 nM

B6: AVA04-261 (designed binder)
chain: MIPRGLSEAKPATPEIQEIVDKVKPQLEEKTNETYGKLEAVQYKTQVLAHAYGPRDWDSTNYYIKVRAGDNKYMHLKVFNGPPADHVLEEAADRVLTGYQVDKNKDDELTGFHHHHHH
Kd [4]: 2.95 nM | koff [4]: 0.0109 s⁻¹ | kon [4]: 3.68e+06 M⁻¹ s⁻¹

B7: AVA04-236 (designed binder)
chain: MIPRGLSEAKPATPEIQEIVDKVKPQLEEKTNETYGKLEAVQYKTQVLAKEHGPDSWWSTNYYIKVRAGDNKYMHLKVFNGPQEKNQWVEEADRVLTGYQVDKNKDDELTGFHHHHHH
Kd [4]: 5.43 nM | koff [4]: 0.00977 s⁻¹ | kon [4]: 1.8e+06 M⁻¹ s⁻¹

Further lines, results first:

Kd [1]: 109 to 152 nM
B1: HSA-18 (designed binder)
chain: MIPRGLSEAKPATPEIQEIVDKVKPQLEEKTNETYGKLEAVQYKTQVLADWWQAKWPHSTNYYIKVRAGDNKYMHLKVFNGPYKVHQSSGGADRVLTGYQVDKNKDDELTGFHHHHHH
notes: also called HSA-18 monomer

Kd [4]: 1.68 nM | koff [4]: 0.00345 s⁻¹ | kon [4]: 2.05e+06 M⁻¹ s⁻¹
B8: AVA04-269 (designed binder)
chain: MIPRGLSEAKPATPEIQEIVDKVKPQLEEKTNETYGKLEAVQYKTQVLAKEYGPEEWWSTNYYIKVRAGDNKYMHLKVFNGPGDYEQVLIHADRVLTGYQVDKNKDDELTGFHHHHHH

EC50 (read off the curve) [5]: ~5 nM
B9: HSA-41 (designed binder)
chain: MIPRGLSEAKPATPEIQEIVDKVKPQLEEKTNETYGKLEAVQYKTQVLANFFQRRWPGSTNYYIKVRAGDNKYMHLKVFNGPWKFRNTDRGADRVLTGYQVDKNKDDELTGFHHHHHH
notes: Made in E. coli; also called AVA-41; AFFIMER® XT “AVA-41”
